Test results: patent publication US20230060388A1 (SHANGHAI HENLIUS BIOTECH, published 2023)
Substitutions are numbered along the chain they refer to. Values belong to the binder of their own block, whether it stands above or below them.

How the values were obtained:
[1] = molecular target: T1, recombinant human TIGIT extracellular domain (ECD) (human, UniProt Q495A1 22-138); test: ELISA, VHH supernatant on h-TIGIT ECD coated plates
T1 construct: also called h-TIGIT ECD; recombinant human TIGIT ECD
T1 sequence: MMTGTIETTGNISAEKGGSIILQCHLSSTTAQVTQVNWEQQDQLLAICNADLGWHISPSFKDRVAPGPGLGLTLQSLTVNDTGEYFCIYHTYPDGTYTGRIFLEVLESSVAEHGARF
Protocol: The VHH antibody genes were amplified by PCR under protocols know in the art, purified by DNA agarose gel, constructed into a phagemid vector pADL-23c (Antibody Design Labs) and transformed to TG1 electrocompetent cells (from Lucigen). Transformed TG1 cells were cultured in Y2T medium. […] Phages in supernatants of culture were harvested by centrifugation, and panning of binders to human-TIGIT (h-TIGIT) or cynomolgus-TIGIT (cyno-TIGIT) antigen was performed using streptavidin-coupled Dynabeads coated with biotinylated h-TIGIT or cyno-TIGIT ECD. After 3 rounds of panning, binders of h-TIGIT or cyno-TIGIT were eluted, which were used to infect SS320 cells. Colonies of SS320 cells were picked and cultured in Y2T medium, and IPTG was added for secretion of VHH antibodies. Supernatants with VHH antibodies were screened by ELISA assays using h-TIGIT ECD coated plates. Positive h-TIGIT binders were picked for sequencing. 29 clones with different sequences were selected. Binding ability of VHH antibodies on cyno-TIGIT was also examined by ELISA. The top 21 binders and their CDRs and VHs are shown in the Sequence Table (SEQ ID NOS: 1-84).

[2] = molecular target: T1, recombinant human TIGIT extracellular …; test: blocking ELISA, competitor PVR
Protocol: The effects of VHH antibody clones on blocking Poliovirus Receptor (PVR, a.k.a. CD155) binding to TIGIT were also determined using blocking ELISA assay.

[3] = molecular target: T2, human TIGIT expressed on cells (stably transfected Jurkat cells) (human, UniProt Q495A1 22-244); test: whole cell binding to h-TIGIT stable cells, EC50 plotted against the blocking ELISA IC50
T2 construct: Also used here for TIGIT on primary T cells in the MLR; also called h-TIGIT; T cell immunoreceptor with Ig and ITIM domains
T2 sequence: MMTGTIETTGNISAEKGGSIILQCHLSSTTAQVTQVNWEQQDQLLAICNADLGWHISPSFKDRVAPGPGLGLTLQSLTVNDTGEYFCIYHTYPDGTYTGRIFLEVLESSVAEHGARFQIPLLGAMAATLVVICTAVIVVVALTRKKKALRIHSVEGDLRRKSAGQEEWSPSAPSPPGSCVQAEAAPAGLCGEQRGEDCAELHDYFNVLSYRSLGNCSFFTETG

[4] = molecular target: T1, recombinant human TIGIT extracellular …; test: PVR blocking ELISA (blocked ligand: PVR), IC50 plotted against the whole cell binding EC50

binding result [1]: binds
B1: 4C5 VHH (VHH)
VHH: QVQLVDSGGGLVQAGGSLRLSCAVSGRSVSTYFVGWFRQAPGKEREFVAAIDRGSTVTRYDDSVKGRFTISRDNAKDTVYLQMNSLKPEDTAVYYCAAKAITRNFIATNDYDYWGQGTQVTVSS
notes: VHH in E. coli supernatant

binding result [1]: binds
B2: 4D11 VHH (VHH)
VHH: QVQLQESGGGLVQPGGSLRLSCAASGSISSINAMGWYRLAPGKHREFVADITNSGSTNYAASVKGRFNISRDNAKDTVYLQMNSLKFEDTAVYYCTARRSTWYISSGRGTQVTVSS
notes: VHH in E. coli supernatant

binding result [1]: binds
B3: 4C6 VHH (VHH)
VHH: QVQLVESGGGLVQAGGSLRLACAASGRTFSSYPMGWFRQGPGKERESVAAISSDGRFTYYAASVKGRFTISKDNAKSAAFLQMNSLKPEDTAVYRCAVDPTGWGTIEADFRSWGQGTQVTVSS
notes: VHH in E. coli supernatant

inhibition of PVR binding to h-TIGIT [2]: > 90%
B4: 13H11 VHH (VHH)
VHH: QVQLVESGGGLVQAGGSLRLSCAASGLTFSMYAMGWFRQGPGKERESVAAISSDGRFTYYAASVKGRFTISKDNAKSAAFLQMNSLKPEDTAVYYCAARDSGSGYYSRAQWYDYWGQGTQVTVSS
notes: VHH in E. coli supernatant

inhibition of PVR binding to h-TIGIT [2]: > 90%
B5: 1G1 VHH (VHH)
VHH: B4 VHH with G16D, A23V, L27P, T28S, M31S, A33P, Q120L
notes: VHH in E. coli supernatant

binding result [1]: binds
B6: 4E5 VHH (VHH)
VHH: QVQLVDSGGGVVEVGASLTLSCETSGLTSSDIAVGWFRQGPGKERESVAAISSDGRFTYYAASVKGRFTISKDNAKSAAFLQMNSLKPEDTAVYYCAARDSGSGYYSRAQWYDYWGQGTQVTVSS
notes: VHH in E. coli supernatant

inhibition of PVR binding to h-TIGIT [2]: > 90%
B7: 2B7 VHH (VHH)
VHH: B4 VHH with S21A, L27R, M31S, A33P
notes: VHH in E. coli supernatant

binding result [1]: binds
B8: 4B5 VHH (VHH)
VHH: QVKLEESGGRSVLAGGSLRLRCAGTPRTFSTFHIGWFRQAPGKEREFVAAFNWSGGRTYYADSVKGRFTISRNNGKNMVYLQMTSLTPEDTGLYYCAAARDRGLHDGTTSDSYLEGSHEYEYWGQGTQVTVSS
notes: VHH in E. coli supernatant

binding result [1]: binds
B9: 3H7 VHH (VHH)
VHH: QVKLEESGGGLVQAGGSLRLSCAASGSILSAGVMRWYRQAPGKQRELVASIALDGSTGYYIDSVKGRFTISRDNAKNIVYLDMRSLEPADTAVYLCNANIRTDMRSAPFDHWGHGTQVTVSS
notes: VHH in E. coli supernatant

binding result [3]: binds | binding result [4]: binds
B10: 1A10 VHH (VHH)
VHH: QVQLVESGGGVVQPGRSLRLSCAASGNSFSSYPMGWFRQAPGKERESVAAISSDGRFSYYADSVKGRFTISRDNSKNTLYLQMNSLRAEDTAVYYCACRDSGSGYYSRAQWYDYWGQGTLVTVSS

binding result [3]: binds | binding result [4]: binds
B11: 6D12 VHH (VHH)
VHH: B10 VHH with N27P, S31T, R56V, S58T, C98A, A109E

binding result [3]: binds | binding result [4]: binds
B12: 6D8 VHH (VHH)
VHH: B10 VHH with N27P, Y32K, I51R, S58T, C98A, Y105R

binding result [3]: binds | binding result [4]: binds
B13: 5G10 VHH (VHH)
VHH: B10 VHH with N27P, S28R, S58T, C98A, Y114G

binding result [3]: binds | binding result [4]: binds
B14: 5B5 VHH (VHH)
VHH: B10 VHH with N27P, G55T, S58T, C98A, Y114R

binding result [3]: binds | binding result [4]: binds
B15: 6E9 VHH (VHH)
VHH: B10 VHH with N27P, F29R, R56K, S58T, C98A, Q110N

binding result [3]: binds | binding result [4]: binds
B16: 1D11 VHH (VHH)
VHH: B10 VHH with N27P, Y32S, D54M, S58T, C98A

binding result [3]: binds | binding result [4]: binds
B17: 6B11 VHH (VHH)
VHH: B10 VHH with N27P, S30P, D54R, S58T, C98A, A109L

binding result [3]: binds | binding result [4]: binds
B18: 2C5 VHH (VHH)
VHH: B10 VHH with N27P, S31T, D54Q, S58T, C98A

binding result [3]: binds | binding result [4]: binds
B19: 2A6 VHH (VHH)
VHH: B10 VHH with N27P, S31L, G55R, S58T, C98A

binding result [3]: binds | binding result [4]: binds
B20: 2A5 VHH (VHH)
VHH: B10 VHH with N27P, D54V, S58T, C98A, A109W

binding result [3]: binds | binding result [4]: binds
B21: 2D5 VHH (VHH)
VHH: B10 VHH with N27P, Y32S, S53W, S58T, C98A, D113V

binding result [3]: binds | binding result [4]: binds
B22: 7B11 VHH (VHH)
VHH: B10 VHH with N27P, S30L, S31I, S58W, C98A, A109V

binding result [3]: binds | binding result [4]: binds
B23: 5E8 VHH (VHH)
VHH: B10 VHH with N27P, I51Q, S58T, C98A

binding result [3]: binds | binding result [4]: binds
B24: 1C7 VHH (VHH)
VHH: B10 VHH with N27P, D54R, S58T, C98A, D100G

binding result [1]: binds
B25: 4H6 VHH (VHH)
VHH: QVQLVESGGGLATAGASLILSCAASGTIFRLNRMGWFRQAPGKERERVAATIWSGRRTHYADSVKGRFTISTDNAKKTVYLRMSSLKPEDTAVYYCNYRRITPWEASGNYWGQGTQVTVSS
notes: VHH in E. coli supernatant

binding result [1]: binds
B26: 4H9 VHH (VHH)
VHH: QVQLVESGGGAVQAGGSLRLSCTASGPIARSRSTGMGWFRQGPGKERESVAAISSDGRFTYYAASVKGRFTISKDNAKSAAFLQMNSLKPEDTAVYYCAARDSGSGYYSRAQWYDYWGQGTQVTVSS
notes: VHH in E. coli supernatant

binding result [1]: binds
B27: 4A11 VHH (VHH)
VHH: QVKLEESGGGEAQPGGSLRLSCTASGRPFSNYTMGWFRRAPGKEREFVGLAWPSPSTYVVDSVKGRFTISRDNAKNTIYLQMNSLKPEDTAIYYCAADYKSLTQSWLNAALDYWGQGTQVTVSS
notes: VHH in E. coli supernatant

inhibition of PVR binding to h-TIGIT [2]: > 90%
B28: 3G7 VHH (VHH)
VHH: B27 VHH with K3Q, E5V, E11L, A12V, P14A, G16D, T23E, P28T, F29L, N31T
notes: VHH in E. coli supernatant

binding result [1]: binds
B29: 12H7 VHH (VHH)
VHH: QVQLVDSGGGLVQAGGSLRLSCKVSGNFLSVSDMSWYRQAPGMERDVVATVTEHGRTTYTDSVKGRFTISRDNAEHTTYLEMNNLKPEDTAVYFCKASDVFTDAGAHEAVLIRDYWGQGTQVTVSS
notes: VHH in E. coli supernatant
